Assay results reported in US20240018242.

What was measured:
[1] = target: FH-AGO2-K726R (UniProt Q9UKV8)
[2] = target: FH-AGO2 (Flag-HA-tagged wild type AGO2 expressed in MCF-7 cells) (UniProt Q9UKV8)
Chain of FH-AGO2 (Flag-HA-tagged wild type AGO2 expressed in MCF-7 cells) (Q9UKV8 whole entry): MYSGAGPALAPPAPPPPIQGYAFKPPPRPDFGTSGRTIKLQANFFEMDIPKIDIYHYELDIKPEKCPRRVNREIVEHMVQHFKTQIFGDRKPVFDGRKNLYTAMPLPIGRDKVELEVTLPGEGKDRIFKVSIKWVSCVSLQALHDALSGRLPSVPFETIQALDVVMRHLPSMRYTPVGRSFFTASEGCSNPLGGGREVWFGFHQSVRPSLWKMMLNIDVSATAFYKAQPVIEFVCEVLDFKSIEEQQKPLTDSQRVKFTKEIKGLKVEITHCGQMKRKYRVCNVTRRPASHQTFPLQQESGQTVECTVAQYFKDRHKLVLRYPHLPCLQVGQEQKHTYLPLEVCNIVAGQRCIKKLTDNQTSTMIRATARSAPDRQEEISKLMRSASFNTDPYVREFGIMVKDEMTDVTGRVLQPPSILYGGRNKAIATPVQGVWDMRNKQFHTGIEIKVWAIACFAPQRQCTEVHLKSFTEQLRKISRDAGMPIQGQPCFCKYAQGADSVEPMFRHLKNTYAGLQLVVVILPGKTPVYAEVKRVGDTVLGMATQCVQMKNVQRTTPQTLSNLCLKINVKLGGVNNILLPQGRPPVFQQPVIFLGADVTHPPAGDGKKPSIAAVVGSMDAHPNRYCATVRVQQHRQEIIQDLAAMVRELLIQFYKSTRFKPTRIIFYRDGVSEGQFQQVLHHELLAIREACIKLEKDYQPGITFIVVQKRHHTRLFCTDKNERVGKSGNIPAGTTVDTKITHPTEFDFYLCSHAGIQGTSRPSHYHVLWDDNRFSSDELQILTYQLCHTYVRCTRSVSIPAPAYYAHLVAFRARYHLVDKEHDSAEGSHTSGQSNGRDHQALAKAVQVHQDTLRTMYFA

Chain of FH-AGO2-K726R (Q9UKV8 whole entry K726R): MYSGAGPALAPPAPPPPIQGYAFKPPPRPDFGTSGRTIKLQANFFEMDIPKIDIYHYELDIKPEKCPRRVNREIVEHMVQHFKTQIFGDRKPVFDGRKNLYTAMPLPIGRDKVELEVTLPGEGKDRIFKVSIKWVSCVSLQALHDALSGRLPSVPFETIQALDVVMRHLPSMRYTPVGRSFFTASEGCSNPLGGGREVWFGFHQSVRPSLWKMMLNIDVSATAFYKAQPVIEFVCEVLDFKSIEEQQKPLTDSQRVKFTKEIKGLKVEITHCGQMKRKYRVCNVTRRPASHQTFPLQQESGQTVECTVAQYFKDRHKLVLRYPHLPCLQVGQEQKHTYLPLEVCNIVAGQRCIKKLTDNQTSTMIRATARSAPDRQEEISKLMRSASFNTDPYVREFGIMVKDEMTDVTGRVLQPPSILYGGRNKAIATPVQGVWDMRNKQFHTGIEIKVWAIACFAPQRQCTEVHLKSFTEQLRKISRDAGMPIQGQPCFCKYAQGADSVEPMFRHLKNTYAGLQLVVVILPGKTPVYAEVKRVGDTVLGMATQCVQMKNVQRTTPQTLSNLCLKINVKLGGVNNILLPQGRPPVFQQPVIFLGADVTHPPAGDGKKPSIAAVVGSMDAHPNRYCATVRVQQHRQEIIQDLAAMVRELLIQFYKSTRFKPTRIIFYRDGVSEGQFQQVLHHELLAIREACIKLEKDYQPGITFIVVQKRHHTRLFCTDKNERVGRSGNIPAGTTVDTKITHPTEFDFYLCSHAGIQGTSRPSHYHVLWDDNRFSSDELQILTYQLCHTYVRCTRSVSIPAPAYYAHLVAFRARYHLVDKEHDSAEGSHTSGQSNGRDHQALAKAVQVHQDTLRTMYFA

Substance: FH-LSD1 (Flag-HA-tagged wild type LSD1 expressed in MCF-7 cells)
- K726me1 level in in vitro demethylation assay (immunoblot) [1]: had no observable effects on FH-AGO2-K726R
- K726me1 level on FH-AGO2 in in vitro demethylation assay (immunoblot) [2]: FH-LSD1 but not FH-LSD1-K661A decreased K726mel level on FH-AGO2

Substance: FH-LSD1-K661A (catalytically compromised LSD1)
- K726me1 level on FH-AGO2 in in vitro demethylation assay (immunoblot) [2]: FH-LSD1 but not FH-LSD1-K661A decreased K726mel level on FH-AGO2
